{"source": "patent US9872921B2", "about": "“DE-N-acetyl sialic acid antigens, antibodies thereto, and methods of use in cancer therapy” (priority 2004, dated 2018)", "molecules": {"B1": {"name": "SEAM 3: murine anti-N-Pr NmB polysaccharide monoclonal antibody (IgG2b), ATCC Deposit No. HB-12170 (antibody, V domains shown)", "VH": "EVKLQESGGGLVQPGDSLSLSCAASGFTFTPYYMGWVRQPPGKALEWLGYIRNKANGYTTEYSASVKGRFTISRDNSQSILYLQMNALRAEDSATYYCARYARGTVDSWGQGTTLTVS", "VL": "DIVMTQSPLTLSVTIGQPASISCKSSQSLLHSNGKTYLNWLLQRPGQSPKLLIYLVSKLESGVPDRFSGSGSGTDFTLKISRVEAEDLGLYYCLQIIHFPHTFGAGTKLELKRA", "modifications": "mouse"}}, "key": {"SK-MEL 28 cells": {"test_system": "SK-MEL 28 cells", "assay": "Flow cytometry double labeling of SEAM 3 binding and Ki-67 antigen", "assay_type": "cell-based, human", "protocol": "Cells were processed by the same procedures used to measure SEAM 3 binding in the absence of Triton. After unbound SEAM 3 had been washed away, cells were treated with 3% (v/v) goat serum containing 0.5% Triton to allow entry of an anti-Ki-67 antibody. After 1 h at 4° C., an anti-Ki-67 was added and incubated on-ice for 2 hours. Cells were then collected by centrifugation, washed twice with PBS, and two fluorescently labeled goat anti-mouse secondary antibodies were added, anti IgG2b-Alexa Flour 594 (Invitrogen); anti-IgM-Alexa Flour 488 (Invitrogen). After extensive washing, cells were analyzed on a Guava EasyCyte flow cytometer."}, "[1]": {"test_system": "CHP-134 neuroblastoma cells", "assay": "Fluorescence / confocal microscopy binding to cells", "assay_type": "cell-based, human", "settings": "without Triton", "protocol": "(§1) After an overnight incubation cells were gently washed with PBS buffer and fixed with ice-cold 1% (v/v) formaldehyde. After 20 minutes cells were washed with PBS before blocking non-specific binding with a solution of 3% goat serum for 1 hour. To observe the presence of SEAM 3-reactive antigen that is present inside the cells, the cells were treated Triton X-100 0.5% w/v in 3% goat serum for 1 hour. The primary antibodies were added and incubated for 2 hours or overnight at 4° C. Cells were gently washed by a series (at least twice) with ice-cold PBS before isotype-specific secondary antibody (produced in goat) conjugated with either Alexa Fluor 488 (immunofluorescence and confocal), Alexa Fluor 546 (confocal) Alexa Fluor 594 (immunofluorescence), Alexa Fluor 633 (confocal) was applied for at least 1 hour at 4° C. in the dark (all secondary antibodies conjugated to fluorophores were obtained from Invitrogen, Carlsbad, Calif.). After another series of gentle washes, a hardening mounting medium containing DAPI was applied.\n(§2) Confocal images were obtained using a Zeiss Meta510 CLSM at the Biological Imaging Facility, University of California, Berkeley, Calif. and were analyzed using ImageJ Software (NIH). Control antibodies and secondary antibodies applied alone were routinely used to assess background fluorescence."}, "SK-MEL-28 melanoma cells": {"test_system": "SK-MEL-28 melanoma cells", "assay": "Fluorescence / confocal microscopy binding to cells", "assay_type": "cell-based, human", "settings": "without Triton", "protocol": "as §1, §2"}, "normal tissues": {"test_system": "normal tissues", "assay": "Immunohistochemistry on micro array of normal tissues", "parameters": "species or system human", "settings": "17 samples", "protocol": "Human tissue microarrays were obtained from US BioMax (Rockville, Md.). The tissue microarrays were deparaffinized in xylene (2 changes, 10 minutes each) then rehydrated by sequential 5 minute washes in 100% ethanol, 95% ethanol, 70% ethanol, 50% ethanol, and PBS buffer. Endogenous peroxidase was blocked by incubation with Peroxidazed 1 solution (Biocare, Concord, Calif.) for 5 minutes at ambient temperature. The sections were blocked with Terminator (Biocare) containing streptavidin then rinsed with PBS buffer. The primary antibody (purified SEAM 3 (vide infra), irrelevant IgG2b control, etc. at concentrations of 1 to 5 μg/ml)) was diluted in Da Vinci Green dilution buffer (Biocare) and incubated either overnight at 4 degrees C. or for 1 hour at ambient temperature. The slides were washed 3 times for 10 minutes each with PBS buffer then incubated with biotin conjugated rabbit anti-mouse IgG secondary antibody (5 μg/ml, Vector Labs, Burlingame, Calif.) for 30 minutes at ambient temperature. After washing 3 times for 10 minutes each with PBS buffer, horse radish peroxidase-streptavidin conjugate (Vector Labs) was added and incubated at ambient temperature for 30 minutes. The slides were washed 3 times for 10 minutes each with PBS buffer and incubated with AEC substrate (Vector Labs) containing hydrogen peroxide for color development. […]"}, "human melanomas": {"test_system": "human melanomas", "assay": "Immunostaining of frozen sections of human melanomas", "settings": "frozen unfixed sections, 400× magnification", "protocol": "To determine whether there is a difference in expression of SEAM 3-reactive antigen between normal melanocytes and melanoma tumor cells, immuno-staining of thin sections of each type of tissue were performed. In addition to SEAM 3, controls included the secondary antibody alone and R24, which binds to the ganglioside GD3 that is expressed in normal melanocytes and is overexpressed in some melanomas (Dippold et al. Proc Natl Acad Sci USA, 1980. 77(10): 6114-8.; Graus, et al., Brain Res, 1984. 324(1): 190-4; Houghton et al. Proc Natl Acad Sci USA, 1985. 82(4):1242-6; Panneerselvam et al. J Immunol, 1986. 136(7): 2534-41; Real et al. Cancer Res, 1985. 45(9): 4401-11; Vadhan-Raj et al. J Clin Oncol, 1988. 6(10): 1636-48; Welt t al. Clin Immunol Immunopathol, 1987. 45(2): 214-29).\nThe tissue sections were made from frozen samples of normal skin (HuSkinTb111 in FIG. 39) and two human melanomas (HuMel1151 and HuMel4034). To prevent the possibility of blocking de-N-acetyl antigen or extracting a lipid containing the antigen, the sections were prepared from frozen tissue and were dried onto the slides but not fixed with aldehydes or organic solvents (Chammas et al. Cancer Res, 1999. 59(6): 1337-46). […] Bound antibody was then detected using the DAKO LSAB kit following the manufacturer's directions (Thermo Fisher Scientific, Waltham, Mass.). […]"}}, "data": [{"molecule": "B1", "values": [{"measurement": "cells expressing SEAM 3-reactive antigen on their surface", "setting": "SK-MEL 28 cells; cells in exponential growth phase, flow cytometry and fluorescence microscopy", "value": "approximately 20%"}, {"measurement": "cells expressing both Ki-67 and SEAM 3-reactive antigen on their surface", "setting": "SK-MEL 28 cells; double labeling", "value": "approximately 11%"}, {"measurement": "cells that only express SEAM 3-reactive antigen", "setting": "SK-MEL 28 cells; double labeling", "value": 13, "unit": "%"}, {"measurement": "binding to cell surface by microscopy", "setting": "[1]", "value": "fluorescence is uniform over the cell surface"}, {"measurement": "binding to cell surface by microscopy", "setting": "SK-MEL-28 melanoma cells", "value": "fluorescence is uniform over the cell surface"}, {"measurement": "normal tissue samples positive for binding", "setting": "normal tissues", "value": "15 of 17"}, {"measurement": "staining grade in positive normal tissue samples", "setting": "normal tissues", "value": "+ to ++"}, {"measurement": "immunostaining of two human melanomas", "setting": "human melanomas", "value": "staining is weaker but nearly all of the melanoma cells are stained"}]}]}
